Experiments:
human GPVI on platelets = biological target: T1, human GPVI on platelets (human, UniProt Q9HCN6 21-339); assay: cell-based or functional assay
T1 sequence (looked up): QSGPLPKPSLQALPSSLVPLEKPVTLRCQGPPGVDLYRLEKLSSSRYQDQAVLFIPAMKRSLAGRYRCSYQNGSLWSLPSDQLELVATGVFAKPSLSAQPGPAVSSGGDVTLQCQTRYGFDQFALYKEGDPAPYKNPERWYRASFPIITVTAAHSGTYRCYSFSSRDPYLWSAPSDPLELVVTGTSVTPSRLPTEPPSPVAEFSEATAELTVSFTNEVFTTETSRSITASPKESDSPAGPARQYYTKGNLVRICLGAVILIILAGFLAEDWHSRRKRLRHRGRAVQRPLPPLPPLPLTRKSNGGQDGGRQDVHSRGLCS

[1] = biological target: T2, human GPVI protein, soluble extracellular domain (D1 and D2) (human, UniProt Q9HCN6 21-267); assay: SPR (Biacore 3000), human GPVI immobilised, Fab analyte
T2 construct: extracellular domain; also called hGPVI; human glycoprotein VI
T2 sequence (looked up): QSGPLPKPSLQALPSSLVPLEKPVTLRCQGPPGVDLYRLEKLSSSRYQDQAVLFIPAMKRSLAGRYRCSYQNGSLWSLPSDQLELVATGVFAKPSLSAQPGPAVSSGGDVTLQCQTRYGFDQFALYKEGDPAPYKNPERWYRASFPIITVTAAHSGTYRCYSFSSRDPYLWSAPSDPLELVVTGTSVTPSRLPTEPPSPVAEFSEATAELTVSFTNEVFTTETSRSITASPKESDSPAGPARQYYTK
Description: Surface plasmon resonance technology on a Biacore 3000 (GE Healthcare) was used for detailed kinetic characterisation of purified antibody fragments. An assay with immobilised human GPVI was used. Typically, 300 RU of GPVI were immobilised on a research grade CM5 chip by amine reactive coupling, resulting in an Rmax of 200 RU for the bound antibody fragment. Binding kinetics were measured over a concentration range between 3.2 to 112 nM in HBS-EP (10 mM HEPES pH 7.4, 150 mM NaCl, 3 mM EDTA, 0.005% Surfactant P20) at a flow rate of 30 μl/min. Chip surfaces were regenerated with 10 mM glycine pH2.0. Kinetic parameters were analysed and calculated in the BIAevaluation program package (version 4.1) using a flow cell without immobilised GPVI as reference. A 1:1 binding model with mass transfer was applied for a global fit of the data for curves corresponding to analyte concentrations from 3-56 nM of Fab fragment.
Note that the Biacore assay used to measure the data in this example is different in terms of immobilized binding partner (GPVI versus the mAb/Fab fragment) and this leads to the different Biacore affinities as reported in Table 5.

hGPVI-hFc fusion protein [2] = biological target: T3, hGPVI-hFc fusion protein (human); assay: DELFIA competition assay: Fab preincubated with GPVI-Fc (3 µg/ml), binding to collagen-coated plate, Test 1
T3 construct: also called GPVI-Fc; human GPVI-Fc fusion protein
Description: (§1) Collagen coated 384 well plates (Pierce) were blocked with 3% BSA for 2 h. Increasing concentrations of anti GPVI Fab fragments (0.3-20 μg/ml) were incubated with recombinant GPVI (Fusion protein of the extracellular domain of GPVI and Fc-Part of human IgG; 3 μg/ml). The GPVI-Fab mixture was added to collagen coated plates and incubated for 1 h at RT. 384 well plates were washed (DELFIA wash buffer, Perkin Elmer) five times and Eu-labelled anti-human IgG (100 ng/ml Perkin Elmer) was added. Following 1 h incubation at room temperature plates were washed again five times, enhancement solution (Perkin Elmer) was added and incubated for 10 min. Fluorescence was detected at 360/612 nm using a Tecan Ultra reader. Shown in Table 15 are examples of the inhibitory effect of recombinantly produced anti-GPVI Fab fragments on GPVI collagen binding.

hGPVI-hFc fusion protein [3] = biological target: T3, hGPVI-hFc fusion protein; assay: DELFIA competition assay: Fab preincubated with GPVI-Fc (3 µg/ml), binding to collagen-coated plate, Test 2
Description: as §1

hGPVI-hFc fusion protein [4] = biological target: T3, hGPVI-hFc fusion protein; assay: DELFIA competition assay: Fab preincubated with GPVI-Fc (3 µg/ml), binding to collagen-coated plate, Test 3
Description: as §1

hGPVI-hFc fusion protein [5] = biological target: T3, hGPVI-hFc fusion protein; assay: competition ELISA, hGPVI-Fc on collagen-coated plates (FIG. 1A)
Description: (§2) A secondary screening was performed to characterize functional properties of all human GPVI-specific mAbs for their ability to block the binding of collagen to human GPVI-Fc fusion protein in a competition ELISA binding assay. Custom-made collagen coated 96-well plates (Pierce) were used. Pre-incubated mixture of human GPVI-Fc fusion protein and hybridoma supernatants were added to the plate and collagen-human GPVI-Fc complex was detected by using goat anti-human IgG-Fc conjugated with horseradish peroxidase (Sigma; #A0170). The antibody binding was visualized by adding TMB-H2O2 buffer and read at a wavelength of 450 nm. […] The blocking properties of pre-selected mAbs to human GPVI were confirmed to be dose-dependent using a competition ELISA assay as shown in FIG. 1A.

[6] = biological target: T2, human GPVI protein, soluble …; assay: SPR (BIAcore 2000), mAb captured by anti-Fc, human GPVI in solution
Description: A last screening was performed by Surface Plasmon Resonance (BIAcore 2000) to evaluate binding properties of GPVI blocking antibodies. In this analysis, we evaluated the interaction of the human GPVI protein with the anti-human GPVI mAbs fixed to anti-Fc antibody covalently linked to CM chips. Binding kinetics of the individual mAbs were performed using the protocol described by Canziani et al 2004. Anal. Biochem. 325: 301-307.

hGPVI-hFc fusion protein [7] = biological target: T3, hGPVI-hFc fusion protein; assay: DELFIA competition assay: IgG preincubated with GPVI-Fc (3 µg/ml), binding to collagen-coated plate, Test 1
Description: (§3) Collagen coated 384 well plates (Pierce) were blocked with 3% BSA for 2 h. Increasing concentrations of IgG or its corresponding Fab fragment produced by Ficin cleavage (0.3-20 μg/ml) were incubated with recombinant GPVI (Fc-fusion protein of the extracellular GPVI domain; 3 μg/ml) for 30 min. The GPVI-IgG mixture was added to collagen coated plates and incubated for 1 h at RT. Next, 384 well plates were washed (DELFIA wash buffer, Perkin Elmer) five times and Eu-labelled anti-human IgG (100 ng/ml Perkin Elmer) was added. Following 1 h incubation at room temperature plates were washed again five times, enhancement solution (Perkin Elmer) was added and incubated for 10 min. Fluorescence was detected at 360/612 nm using a Tecan Ultra reader.

hGPVI-hFc fusion protein [8] = biological target: T3, hGPVI-hFc fusion protein; assay: DELFIA competition assay: IgG preincubated with GPVI-Fc (3 µg/ml), binding to collagen-coated plate, Test 2
Description: as §3

[9] = biological target: T4, primate GPVI-Fc fusion protein (Macaca fascicularis) (Macaca fascicularis (cynomolgus), UniProt Q9HCN6 21-205 (human entry)); assay: competition ELISA against Maccaca GPVI-Fc: inhibition by purified IgG of the binding of GPVI-Fc to collagen; blocked ligand: collagen
T4 construct: also called Maccaca GPVI-Fc; primate GPVI-Fc protein; not shown: Fc part of the primate GPVI-Fc fusion is not described
T4 chain: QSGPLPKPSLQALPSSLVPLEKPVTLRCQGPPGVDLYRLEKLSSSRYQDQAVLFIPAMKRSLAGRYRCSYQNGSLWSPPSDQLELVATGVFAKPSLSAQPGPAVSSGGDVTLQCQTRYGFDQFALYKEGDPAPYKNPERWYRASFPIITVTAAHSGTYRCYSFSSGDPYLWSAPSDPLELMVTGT

hGPVI-hFc fusion protein [10] = biological target: T3, hGPVI-hFc fusion protein; assay: competition ELISA: purified IgG pre-incubated with hGPVI-Fc, mixture added to collagen-coated plate, bound GPVI-Fc detected with anti-human IgG-Fc-HRP (OD 450 nm); blocked ligand: collagen
Description: as §2

[11] = biological target: T2, human GPVI protein, soluble …; assay: SPR (Biacore 3000), Fab immobilised, human GPVI analyte
Description: Surface plasmon resonance technology on a Biacore 3000 (GE Healthcare) was used for detailed kinetic characterization of purified antibody fragments. A direct binding assay was used with the anti-GPVI Fab as the ligand and human GPVI as analyte. Typically, 500 RU of anti-GPVI Fab were immobilized on a research grade CM5 chip by amine reactive coupling, resulting in an Rmax of 200 RU for the bound GPVI molecule. Binding kinetics were measured over a concentration range typically between 0.8 to 208 nM in HBS-EP (10 mM HEPES pH 7.4, 150 mM NaCl, 3 mM EDTA, 0.005% Surfactant P20) at a flow rate of 30 μl/min. Chip surfaces were regenerated with 10 mM glycine pH 2.0. Kinetic parameters were analyzed and calculated in the BIAevaluation program package (version 4.1) using a flow cell without immobilized Fab as reference. A 1:1 binding model with mass transfer was applied for a global fit of the data for curves.

B1: humanized anti-GPVI Fab VL2/VH2 (Fab, V domains shown)
VH: QVQLQESGPGLVAPSQSLSITCTVSGFSLTGYGVNWVRQPPSRGLEWLGMIWGDGSTDYQSTLKSRLSISKDNSKSQVFLKMNSLTTDDTARYYCARDLPMDYWGQGTSVTVSS
VL: DIQMTQSPSSLSASVGGRVTITCKASQDINKYIAWYQHKPGKGPSLLIHYTSTLQPGVPSRFSGSGSGRDYSFSISNLQPEDIATYYCLQYAHLLTFGGGTKLEIKR
notes: Recombinant Fab: VH fused to CH1 of human IGHG1 (Q569F4), HC ends in DKTHT; VL fused to human constant kappa (Q502W4); also called VL2 with VH2
Human GPVI on platelets
  IC50 for inhibition of collagen induced platelet aggregation (human PRP), Test 1: 1.4 µg/mL
  IC50 for inhibition of collagen induced platelet aggregation (human PRP), Test 2: 2.4 µg/mL
  IC50 for inhibition of collagen induced platelet aggregation (human PRP), Test 3: 2.3 µg/mL
[1]
  Kd: 0.3 nM
  koff: 3e-05 s⁻¹
  kon: 108000 M⁻¹ s⁻¹
hGPVI-hFc fusion protein [2]
  IC50: 0.81 µg/mL
hGPVI-hFc fusion protein [3]
  IC50: 0.73 µg/mL
hGPVI-hFc fusion protein [4]
  IC50: 1.05 µg/mL

B2: anti-GPVI mAb from hybridoma clone 390 (antibody, mouse IgG1, kappa, V domains shown)
VH: QVQLKESGPGLVAPSQSLSITCTVSGFSLTGYGVNWVRQPPGKGLEWLGMIWGDGSTDYNSTLKSRLSISKDNSKSQVFLKMNSLQTDDTARYYCARDLPMDYWGQGTSVTVSS
VL: DIQMTQSPSSLSASLGGKVTITCKASQDINKYIAWYQHKPGKGPSLLIHYTSTLQPGIPSRFSGSGSGRDYSFSISNLEPEDIATYYCLQYANLLTFGGGTKLEIKR
modifications: N-glycosylation site (NST) in the heavy chain variable region is occupied
notes: Mouse IgG1, kappa, purified from hybridoma; also called monoclonal antibody from clone 390; IgG from hybridoma clone 390
hGPVI-hFc fusion protein [5]
  IC50: < 10 µg/mL
[6]
  Kd: 0.04 nM
  koff: 4e-06 s⁻¹
  kon: 108000 M⁻¹ s⁻¹
hGPVI-hFc fusion protein [7]
  IC50: 5.6 µg/mL
hGPVI-hFc fusion protein [8]
  IC50: 5 µg/mL
[9]
  IC50 (read off the curve): ~5 µg/mL
hGPVI-hFc fusion protein [10]
  IC50 (read off the curve): ~3 µg/mL

B3: Fab 390-G (recombinant glycosylated Fab of clone 390) (Fab, V domains shown)
VH: QVQLKESGPGLVAPSQSLSITCTVSGFSLTGYGVNWVRQPPGKGLEWLGMIWGDGSTDYNSTLKSRLSISKDNSKSQVFLKMNSLQTDDTARYYCARDLPMDYWGQGTSVTVSS
VL: DIQMTQSPSSLSASLGGKVTITCKASQDINKYIAWYQHKPGKGPSLLIHYTSTLQPGIPSRFSGSGSGRDYSFSISNLEPEDIATYYCLQYANLLTFGGGTKLEIKR
modifications: additional N-glycosylation motif in VH kept
notes: Chimeric Fab from HEK293: VL fused to human constant kappa (IGKC, Q502W4), VH to CH1 of human IGHG1 (Q569F4)
[11]
  Kd: 0.05 nM
  koff: 1.5e-05 s⁻¹
  kon: 320000 M⁻¹ s⁻¹
